Experimental data published in patent US20030206905A1.

Molecular target: 161P2F10b (UniProt O14638)
Assay: saturation binding ELISA; relative affinity

- Kd: 0.28 nM
Substance: 97A6(CD203c)
